The chains are these.
B1: SNAP91 (parent)
chain: FSTDAFSSPPQGASPVPESSLTAD
B2: CAMK2A (parent)
chain: ILLVGYPPFWDEDQHRLYKQIKAG

This note sets out measurements from the supplement of paper PMC10567573.
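Also: lentivirally expressed fusions sorted by FACS into six bins by GFP to DsRed ratio, PSI derived from sequencing read proportions per bin multiplied by bin number.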

Variants of B1 are the subject of one data set. The data set can be described thus: protein stability index of a GFP-peptide fusion (GPS, HEK-293T) (PSI 1-6); higher = more stable. The conditions noted are these: c terminus: a fixed tail appended.
On to FSTDAFSSPPQGASPVPNSSLTAD [E18N], for which the protein stability index is 2.61.
Still for that read-out and setting: next, FSTDAFSSPPQGASPVPASSLTAD [E18A]: 3.22.
On to FSTDAFSSPPQGASPVPDSSLTAD [E18D], for which the protein stability index was found to be 3.15.
On the same count and under the same terms, next, FSTDAFSSPPQGASPVPTSSLTAD [E18T]: 2.81; FSTDAFSSPPQGASPVPYSSLTAD [E18Y]: 2.74.
On the same count and under the same terms, next, FSTDAFSSPPQGASPVPCSSLTAD [E18C]: 2.43; FSTDAFSSPPQGASPVPPSSLTAD [E18P]: 2.78.
On the same count and under the same terms, next, FSTDAFSSPPQGASPVPISSLTAD [E18I]: 2.63; FSTDAFSSPPQGASPVPMSSLTAD [E18M]: 2.83.
On to FSTDAFSSPPQGASPVPESSLIAD [T22I], for which the protein stability index came to 3.21.
Turning to FSTDAFSSPPQGASPVPESSLYAD [T22Y], the protein stability index was 3.21.
Take FSTDAFSSPPQGASPVPESSLKAD [T22K]: the protein stability index stood at 2.64.
The same measure, in the same setting: under FSTDAFSSPPQGASPVPESSLPAD [T22P] stands 2.83; under FSTDAFSSPPQGASPVPESSLDAD [T22D], 3.46; under FSTDAFSSPPQGASPVPESSLAAD [T22A], 2.92.
In the case of FSTDAFSSPPQGASPVPESSLSAD [T22S], the protein stability index was determined as 3.63.
Same read-out and setting: next, FSTDAFSSPPQGASPVPESSLCAD [T22C]: 3.3.
The same measure, in the same setting: under FSTDAFSSPPQGASPVPESSLVAD [T22V] stands 3.41; under FSTDAFSSPPQGASPVPESSLRAD [T22R], 2.93; under FSTDAFSSPPQGASPVPESSLWAD [T22W], 2.28.
Same read-out and setting: under FSTDAFSSPPQGASPVPESSLQAD [T22Q] stands 3.36; under FSTDAFSSPPQGASPVPESSLNAD [T22N], 3.09.
For FSTDAFSSPPQGASPVPESSLEAD [T22E], the protein stability index is 3.86.
Still for that read-out and setting: next, FSTDAFSSPPQGASPVPESSLLAD [T22L]: 3.63; FSTDAFSSPPQGASPVPESSLHAD [T22H]: 3.09; FSTDAFSSPPQGASPVPESSLGAD [T22G]: 3.3.
Still for that read-out and setting: under FSTDAFSSPPQGASPVPESSLFAD [T22F] stands 2.96; under FSTDAFSSPPQGASPVPESSLMAD [T22M], 3.31.
The same measure, in the same setting: next, FSTDAFSSPPQGASPVPENSLTAD [S19N]: 3.44; FSTDAFSSPPQGASPVPEISLTAD [S19I]: 2.91.
On to FSTDAFSSPPQGASPVPEQSLTAD [S19Q], for which the protein stability index stood at 3.1.
The same measure, in the same setting: under FSTDAFSSPPQGASPVPECSLTAD [S19C] stands 3.19; under FSTDAFSSPPQGASPVPEGSLTAD [S19G], 2.46.
Still for that read-out and setting: under FSTDAFSSPPQGASPVPELSLTAD [S19L] stands 2.79; under FSTDAFSSPPQGASPVPEDSLTAD [S19D], 3.6; under FSTDAFSSPPQGASPVPEYSLTAD [S19Y], 3.25.
Same read-out and setting: next, FSTDAFSSPPQGASPVPEPSLTAD [S19P]: 3.09; FSTDAFSSPPQGASPVPERSLTAD [S19R]: 2.55.
With FSTDAFSSPPQGASPVPEESLTAD [S19E], the protein stability index turned out to be 3.19.
As for FSTDAFSSPPQGASPVPEWSLTAD [S19W], the protein stability index came to 2.76.
Still for that read-out and setting: under FSTDAFSSPPQGASPVPEASLTAD [S19A] stands 3.08; under FSTDAFSSPPQGASPVPEMSLTAD [S19M], 2.66.
Still for that read-out and setting: under FSTDAFSSPPQGASPVPEKSLTAD [S19K] stands 2.23; under FSTDAFSSPPQGASPVPETSLTAD [S19T], 3.54; under FSTDAFSSPPQGASPVPEHSLTAD [S19H], 3.13.
FSTDAFSSPPQGASPVPEVSLTAD [S19V]: the protein stability index was found to be 2.85.
The same measure, in the same setting: next, FSTDAFSSPPQGASPVPEFSLTAD [S19F]: 2.58.

Variants of B2 are the subject of the next data set. The description is as above. The conditions noted are these: c terminus: a fixed tail appended.
ELLVGYPPFWDEDQHRLYKQIKAG [I1E]: the protein stability index came to 2.96.
The same measure, in the same setting: next, YLLVGYPPFWDEDQHRLYKQIKAG [I1Y]: 1.73; QLLVGYPPFWDEDQHRLYKQIKAG [I1Q]: 1.82; DLLVGYPPFWDEDQHRLYKQIKAG [I1D]: 2.1.
As to KLLVGYPPFWDEDQHRLYKQIKAG [I1K], the protein stability index is 2.23.
With FLLVGYPPFWDEDQHRLYKQIKAG [I1F], the protein stability index amounted to 1.72.
The same measure, in the same setting: under RLLVGYPPFWDEDQHRLYKQIKAG [I1R] stands 2.54.
Same read-out and setting: next, CLLVGYPPFWDEDQHRLYKQIKAG [I1C]: 2.39; SLLVGYPPFWDEDQHRLYKQIKAG [I1S]: 2.33; MLLVGYPPFWDEDQHRLYKQIKAG [I1M]: 1.8.
Same read-out and setting: next, PLLVGYPPFWDEDQHRLYKQIKAG [I1P]: 2.27; TLLVGYPPFWDEDQHRLYKQIKAG [I1T]: 1.58; NLLVGYPPFWDEDQHRLYKQIKAG [I1N]: 2.03.
For ALLVGYPPFWDEDQHRLYKQIKAG [I1A], the protein stability index came to 2.25.
Same read-out and setting: next, LLLVGYPPFWDEDQHRLYKQIKAG [I1L]: 2.05; GLLVGYPPFWDEDQHRLYKQIKAG [I1G]: 2.21.
Regarding VLLVGYPPFWDEDQHRLYKQIKAG [I1V], the protein stability index worked out at 2.15.
On the same count and under the same terms, under ITLVGYPPFWDEDQHRLYKQIKAG [L2T] stands 1.86; under INLVGYPPFWDEDQHRLYKQIKAG [L2N], 1.52; under IYLVGYPPFWDEDQHRLYKQIKAG [L2Y], 2.93.
ICLVGYPPFWDEDQHRLYKQIKAG [L2C]: the protein stability index was 2.11.
On the same count and under the same terms, under IILVGYPPFWDEDQHRLYKQIKAG [L2I] stands 2.57.
On to IGLVGYPPFWDEDQHRLYKQIKAG [L2G], for which the protein stability index came out at 2.4.
On the same count and under the same terms, next, IALVGYPPFWDEDQHRLYKQIKAG [L2A]: 1.6; IVLVGYPPFWDEDQHRLYKQIKAG [L2V]: 1.67; IELVGYPPFWDEDQHRLYKQIKAG [L2E]: 2.04.
The same measure, in the same setting: next, IKLVGYPPFWDEDQHRLYKQIKAG [L2K]: 1.63; ISLVGYPPFWDEDQHRLYKQIKAG [L2S]: 1.75; IQLVGYPPFWDEDQHRLYKQIKAG [L2Q]: 1.42.
On the same count and under the same terms, next, IMLVGYPPFWDEDQHRLYKQIKAG [L2M]: 3.1; IHLVGYPPFWDEDQHRLYKQIKAG [L2H]: 1.72.
For the variant IFLVGYPPFWDEDQHRLYKQIKAG [L2F], the protein stability index stood at 1.3.
Still for that read-out and setting: under IDLVGYPPFWDEDQHRLYKQIKAG [L2D] stands 2.12.
Still for that read-out and setting: under IPLVGYPPFWDEDQHRLYKQIKAG [L2P] stands 1.86.
The same measure, in the same setting: under ILAVGYPPFWDEDQHRLYKQIKAG [L3A] stands 1.65.
As for ILKVGYPPFWDEDQHRLYKQIKAG [L3K], the protein stability index was determined as 1.58.
ILIVGYPPFWDEDQHRLYKQIKAG [L3I]: the protein stability index was 2.58.
Still for that read-out and setting: next, ILGVGYPPFWDEDQHRLYKQIKAG [L3G]: 1.88; ILNVGYPPFWDEDQHRLYKQIKAG [L3N]: 2.31; ILPVGYPPFWDEDQHRLYKQIKAG [L3P]: 2.58.
The same measure, in the same setting: under ILDVGYPPFWDEDQHRLYKQIKAG [L3D] stands 2.63.
Still for that read-out and setting: under ILQVGYPPFWDEDQHRLYKQIKAG [L3Q] stands 1.79; under ILFVGYPPFWDEDQHRLYKQIKAG [L3F], 2.68; under ILEVGYPPFWDEDQHRLYKQIKAG [L3E], 2.19.
Take ILSVGYPPFWDEDQHRLYKQIKAG [L3S]: the protein stability index was determined as 2.4.
Still for that read-out and setting: next, ILMVGYPPFWDEDQHRLYKQIKAG [L3M]: 1.72.
The same measure, in the same setting: next, ILHVGYPPFWDEDQHRLYKQIKAG [L3H]: 2.24.
